In patent publication US20040248211A1, “ICAM-related protein” (priority 1992, published 2004):

Legend:
[1] = target: T1, soluble baculovirus produced human ICAM-R (Homo sapiens, UniProt P32942); assay: ELISA binding of recombinant ICR-1.1 antibodies
T1 sequence (P32942 30-485 limits assumed): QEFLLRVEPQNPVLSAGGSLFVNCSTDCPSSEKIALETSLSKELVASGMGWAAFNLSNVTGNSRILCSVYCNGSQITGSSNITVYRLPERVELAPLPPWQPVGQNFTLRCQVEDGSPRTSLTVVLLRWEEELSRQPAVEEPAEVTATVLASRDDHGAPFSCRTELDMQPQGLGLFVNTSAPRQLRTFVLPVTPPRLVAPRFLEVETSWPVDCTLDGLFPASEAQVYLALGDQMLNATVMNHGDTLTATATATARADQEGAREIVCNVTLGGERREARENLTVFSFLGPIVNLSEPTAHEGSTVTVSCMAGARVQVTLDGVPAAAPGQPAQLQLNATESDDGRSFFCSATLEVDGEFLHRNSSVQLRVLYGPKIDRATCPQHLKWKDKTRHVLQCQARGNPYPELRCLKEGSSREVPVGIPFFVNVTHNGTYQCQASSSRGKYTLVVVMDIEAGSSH

[2] = target: T2, baculovirus-produced soluble human ICAM-R (Homo sapiens, UniProt P32942); assay: ELISA binding of recombinant ICR-8.1 antibodies; details: humanized/chimeric ICR-8.1 chain combinations, human IgG4/kappa
T2 sequence (P32942 30-485 limits assumed): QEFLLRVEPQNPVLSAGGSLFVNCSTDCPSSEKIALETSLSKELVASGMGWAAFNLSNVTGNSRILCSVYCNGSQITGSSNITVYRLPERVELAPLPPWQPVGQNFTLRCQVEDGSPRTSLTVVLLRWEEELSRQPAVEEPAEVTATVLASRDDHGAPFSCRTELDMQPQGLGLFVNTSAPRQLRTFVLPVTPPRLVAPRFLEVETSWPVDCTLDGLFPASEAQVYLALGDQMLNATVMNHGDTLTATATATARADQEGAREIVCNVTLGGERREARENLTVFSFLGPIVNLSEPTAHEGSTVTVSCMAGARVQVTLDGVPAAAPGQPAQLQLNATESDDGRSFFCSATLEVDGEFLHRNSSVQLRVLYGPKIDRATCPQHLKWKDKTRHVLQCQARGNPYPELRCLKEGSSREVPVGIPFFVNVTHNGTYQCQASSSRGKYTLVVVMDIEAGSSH

[3] = tested on: JY cells (LFA-1) binding to ICAM-R/IgG; assay: JY cell binding to plate-bound ICAM-R/IgG chimeras; assay type: cell-based, human
Method: The binding of the lymphoblastoid cell line JY, which expresses LFA-1, to wild type ICAM-R/IgG chimera was examined in the presence and absence of LFA-1 specific antibodies or antibodies specific for either domain 1 or 2 of ICAM-R. ICAM-R chimeras were diluted to 10 μg/ml in 0.1M Na-carbonate/bicarbonate buffer pH 9.6 and used to coat triplicate wells (50 μl/well) of an Immulon 4 96-well plate (Dynatech) overnight at 4° C. Wells were washed three times in PBS and blocked with 1% BSA (in PBS) for 1 hour at 37° C. JY cells were labeled with the fluorescent dye Calcein (Moleculat Probes, Eugene, Oreg.) at 8 μg/ml at 37° C. in serum free RPMI for 20 minutes. Cells were washed with RPMI and resuspended in binding buffer (0.2% HSA in RPMI. Approximately 1×10^5 cells were added to each well containing the binding buffer with or without antibody (20 μg/ml of ICR-2.1, ICR-1.1, ICR-3.1, ICR-5.1, ICR-7.1, ICR-8.1, ICR-4.2, ICR-6.2, ICR-9.2, TS1/22 or 60.3) so that the final volume was 0.35 ml. Plates were incubated at 37° C. in the dark for 45 minutes and input fluorescence was quantitated with a fluorescence reader (Millipore) in a 96-well format. Unbound cells were removed by inverting the plate in 0.1% BSA in PBS for 20 minutes. Bound cells were quantitated by measuring the remaining fluorescence and presented as percent input minus background binding to wells coated with BSA alone.

[4] = tested on: SKW3 cells; assay: Adhesion of PMA-activated SKW3 cells to plate-bound protein; assay type: cell-based, human; details: PMA-treated cells
Method: The partially purified shICAM-R protein was assayed for binding to SKW3 cells that were pretreated with phorbol ester as described in Example 7 to activate LFA-1-dependent adhesion. The ICAM-R protein was coated onto 96-well Immulon 4 (Dynatech) plates after adjusting the lectin eluate to 25 mM carbonate pH 9.6 and incubated overnight at 4° C. The plates were washed two times with PBS, blocked for 30 minutes at 37° C. with 200 ul/well PBS, 1% BSA, and washed again with PBS before adding cells. SKW3 cells were washed in serum-free RPMI (Gibco), labelled with Calcein-AM (Molecular Probes), and stimulated with PMA. Cells were then added to the plates and incubated for 1 hour at 37° C. The plates were inverted in prewarmed PBS, 1% BSA and were incubated for 30 minutes. The plates were then removed and half of the contents of each well was aspriated. The plates were then scanned with a fluorescence microscope and an automated fluorescence reader.
Peak fractions from wtHis6, E37His6 and mock transfectants were concentrated about 6.5 fold using Centricon 30 (Amicon) centrifugation units. The resultant concentrates were adjusted to equal vols. (0.34 ml) using PBS-D. Control soluble ICAM-R (15 ug/ml) (Example 9) in carbonate buffer pH 9.6 or in buffer D with 40 mM imidazole were made up. […]

B1: HuVH: humanized ICR-1.1 heavy chain V region (Met48) (antibody, V domains shown)
VH: GVQSQVQLVQSGAEVKKPGASVKVSCKASGYTFTVYWMHWVRQAPGQGLEWMGYINPNTDYTEYNQRFQKRVTITADTSTSTAYMELSSLRSEDTAVYYCARWGGNSYGLDYWGQGTLVTVSS
deficit in binding compared with murine progenitor chain, ICR-1.1 versions [1]: 2-3 fold

B2: MuVHVST/MuVK: chimeric ICR-8.1, MuVHVS heavy chain with Thr28, murine VK (antibody, V domains shown)
VH: EVQLQQSGPELVKPGASVKISCKASGYTFTDCIILWVKQSHGKGLEWIGKINPYFGTTTYNLKFKGKATLTVDKSSSTAHMQLNSLTSEDSAVYYCARKEAYPDAMDYWGQGTSVTVSS
VL: DAVMTQTPLSLPVSLGDQASISCRSSQSLVHSNGDTYLHWYLQKPGQSPQLLIYKVSNRFSGVPDRFSGSGSGTDFTLKLSRVEAEDLGVYFCSQSTHVPYTFGGGTKLEIK
binding to ICAM-R (ELISA), recombinant ICR-8.1 antibodies [2]: equivalence in binding to ICAM-R

B3: HuVH/MuVK: ICR-8.1 humanized VH (Ala71) with murine VK (antibody, V domains shown)
VH: QVQLVQSGAEVKKPGASVKVSCKASGYTFTDCIILWVRQAPGQGLEWMGKINPYFGTTTYNLKFKGRVTITADTSTSTAYMELSSLRSEDTAVYYCARKEAYPDAMDYWGQGTLVTVSS
VL: DAVMTQTPLSLPVSLGDQASISCRSSQSLVHSNGDTYLHWYLQKPGQSPQLLIYKVSNRFSGVPDRFSGSGSGTDFTLKLSRVEAEDLGVYFCSQSTHVPYTFGGGTKLEIK
binding to ICAM-R (ELISA), recombinant ICR-8.1 antibodies [2]: equivalence in binding to ICAM-R

B4: HuVHV/MuVK: ICR-8.1 humanized VH with Thr28 and Val71, murine VK (antibody, V domains shown)
VH: QVQLVQSGAEVKKPGASVKVSCKASGYTFTDCIILWVRQAPGQGLEWMGKINPYFGTTTYNLKFKGRVTITVDTSTSTAYMELSSLRSEDTAVYYCARKEAYPDAMDYWGQGTLVTVSS
VL: DAVMTQTPLSLPVSLGDQASISCRSSQSLVHSNGDTYLHWYLQKPGQSPQLLIYKVSNRFSGVPDRFSGSGSGTDFTLKLSRVEAEDLGVYFCSQSTHVPYTFGGGTKLEIK
binding to ICAM-R (ELISA), recombinant ICR-8.1 antibodies [2]: equivalence in binding to ICAM-R

B5: miJuVH/MuVK: ICR-8.1 miHuVH (Ala60, Gln61, Gln64) heavy chain with murine VK (antibody, V domains shown)
VH: QVQLVQSGAEVKKPGASVKVSCKASGYTFTDCIILWVRQAPGQGLEWMGKINPYFGTTTYAQKFQGRVTITADTSTSTAYMELSSLRSEDTAVYYCARKEAYPDAMDYWGQGTLVTVSS
VL: DAVMTQTPLSLPVSLGDQASISCRSSQSLVHSNGDTYLHWYLQKPGQSPQLLIYKVSNRFSGVPDRFSGSGSGTDFTLKLSRVEAEDLGVYFCSQSTHVPYTFGGGTKLEIK
binding to ICAM-R (ELISA), recombinant ICR-8.1 antibodies [2]: equivalence in binding to ICAM-R

B6: T38/A: ICAM-R/IgG chimera, Thr38 changed to Ala (protein)
chain: QEFLLRVEPQNPVLSAGGSLFVNCSTDCPSSEKIALEASLSKELVASGMGWAAFNLSNVTGNSRILCSVYCNGSQITGSSNITVYGLPERVELAPLPPWQPVGQNFTLRCQVEGGSPRTSLTVVLLRWEEELSRQPAVEEPAEVTATVLASRDDHGAPFSCRTELDMQPQGLGLFVNTSAPRQLRTFVLPVTPPRLVAPRFLEVETSWPVDCTLDGLFPASEAQVYLALGDQMLNATVMNHGDTLTATATATARADQEGAREIVCNVTLGGERREARENLTVFSFLGPIVNLSEPTAHEGSTVTVSCMAGARVQVTLDGVPAAAPGQTAQLQLNATESDDGRSFFCSATLEVDGEFLHRNSSVQLRVLYGPKIDRATCPQHLKWKDKTRHVLQCQARGNPYPELRCLKEGSSREVPVGIPFFVNVTHNGTYQCQASSSRGKYTLVVVMDIEAFSSH
modifications: left off: a dimerising Fc or GST
notes: ICAM-R/IgG chimera, Thr38 changed to Ala
reduction in JY cell adhesion to variant ICAM-R/IgG chimera [3]: 70-80%

B7: L121/P: ICAM-R/IgG chimera with domain 2 mutation L121/P (protein, UniProt P32942 30-485, looked up, variant L121P)
extracellular domain: QEFLLRVEPQNPVLSAGGSLFVNCSTDCPSSEKIALETSLSKELVASGMGWAAFNLSNVTGNSRILCSVYCNGSQITGSSNITVYRLPERVELAPLPPWQPVGQNFTLRCQVEDGSPRTSPTVVLLRWEEELSRQPAVEEPAEVTATVLASRDDHGAPFSCRTELDMQPQGLGLFVNTSAPRQLRTFVLPVTPPRLVAPRFLEVETSWPVDCTLDGLFPASEAQVYLALGDQMLNATVMNHGDTLTATATATARADQEGAREIVCNVTLGGERREARENLTVFSFLGPIVNLSEPTAHEGSTVTVSCMAGARVQVTLDGVPAAAPGQPAQLQLNATESDDGRSFFCSATLEVDGEFLHRNSSVQLRVLYGPKIDRATCPQHLKWKDKTRHVLQCQARGNPYPELRCLKEGSSREVPVGIPFFVNVTHNGTYQCQASSSRGKYTLVVVMDIEAGSSH
modifications: extracellular domain fused to IgG Fc
notes: ICAM-R/IgG chimera with domain 2 mutation L121/P
LFA-1 mediated JY cell adhesion to variant ICAM-R/IgG chimera ([3]; chimera coated at 10 μg/ml): wild type levels of LFA-1 mediated binding

B8: wtHis6: wild type histidine tagged soluble ICAM-R extracellular domain (protein)
chain: QEFLLRVEPQNPVLSAGGSLFVNCSTDCPSSEKIALETSLSKELVASGMGWAAFNLSNVTGNSRILCSVYCNGSQITGSSNITVYGLPERVELAPLPPWQPVGQNFTLRCQVEGGSPRTSLTVVLLRWEEELSRQPAVEEPAEVTATVLASRDDHGAPFSCRTELDMQPQGLGLFVNTSAPRQLRTFVLPVTPPRLVAPRFLEVETSWPVDCTLDGLFPASEAQVYLALGDQMLNATVMNHGDTLTATATATARADQEGAREIVCNVTLGGERREARENLTVFSFLGPIVNLSEPTAHEGSTVTVSCMAGARVQVTLDGVPAAAPGQTAQLQLNATESDDGRSFFCSATLEVDGEFLHRNSSVQLRVLYGPKIDRATCPQHLKWKDKTRHVLQCQARGNPYPELRCLKEGSSREVPVGIPFFVNVTHNGTYQCQASSSRGKYTLVVVMDIEAFSSGPGHHHHHH
adhesion of SKW3 cells to plate bound protein [4]: functions as an adhesive ligand for SKW3 cells

B9: HuVK: humanized ICR-1.1 kappa chain V region (antibody, V domains shown)
VL: GARCDIQMTQSPSSLSASVGDRVTITCSASSSVSYIYWYQQKPGKAPKLLIYLTSNLASGVPSRFSGSGSGTDFTLTISSLQPEDFATYYCQQWKSIPLTFGQGTKLEIK
deficit in binding compared with murine progenitor chain, ICR-1.1 versions [1]: 2 fold
